Earlier results in PMC8239176.

Molecular target: KLC1 (Homo sapiens) (UniProt Q07866)
UniProt Q07866, sequence (Q07866 whole entry): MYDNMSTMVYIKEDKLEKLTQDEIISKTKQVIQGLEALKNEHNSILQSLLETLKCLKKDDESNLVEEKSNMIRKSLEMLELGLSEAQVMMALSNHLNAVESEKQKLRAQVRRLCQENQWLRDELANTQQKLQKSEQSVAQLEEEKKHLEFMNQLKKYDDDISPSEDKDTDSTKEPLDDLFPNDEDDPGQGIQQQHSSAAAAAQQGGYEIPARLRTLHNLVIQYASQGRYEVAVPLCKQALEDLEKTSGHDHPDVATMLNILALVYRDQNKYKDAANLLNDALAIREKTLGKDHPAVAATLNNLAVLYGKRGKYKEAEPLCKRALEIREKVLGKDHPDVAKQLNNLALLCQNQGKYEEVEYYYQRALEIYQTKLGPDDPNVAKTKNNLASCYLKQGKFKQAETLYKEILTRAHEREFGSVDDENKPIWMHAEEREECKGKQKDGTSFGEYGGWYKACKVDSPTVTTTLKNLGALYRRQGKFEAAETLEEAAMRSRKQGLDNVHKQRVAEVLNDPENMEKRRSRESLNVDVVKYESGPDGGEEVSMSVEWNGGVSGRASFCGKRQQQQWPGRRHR

SFPQ (from UniProt P23246)
Kd: 3.8 µM
